Target: recombinant GST-S6 (UniProt P62753)

Q: T7-tagged mouse S6K1 Isoform-2 (Iso-2) was tested. Which “in vitro kinase assay (phospho-S6 S240-244 blot)” value did it give?
A: Its value is “have no kinase activity”.

Reference: patent US20150141489
